This is an account of results in PMC6712418, “Distinct Binding Interactions of α5β1-Integrin and Proteoglycans with Fibronectin” (Biophysical Journal, 2019).

For the assay, the target named is T1, Bovine plasma fibronectin (bovine, UniProt P07589 33-2478).
T1 construct: fibronectin, bovine, from plasma; about 0.5 MDa, two similar subunits attached through disulfide linkages; Adsorbed unmodified on a gold surface from 20 ug/mL in PBS; source: bought: Thermo Fisher Scientific
The assay is described as follows: dynamic single-molecule force spectroscopy (AFM); fibronectin adsorbed on a gold surface; integrin or proteoglycan tethered by PEG to the AFM tip; PBS; trigger force 500 pN, no dwell; retraction speed varied; Bell-Evans fit of rupture force against ln(loading rate), fm = 10^7 s^-1 assumed. Particulars: both partners purified.

T1 sequence (P07589 33-2478): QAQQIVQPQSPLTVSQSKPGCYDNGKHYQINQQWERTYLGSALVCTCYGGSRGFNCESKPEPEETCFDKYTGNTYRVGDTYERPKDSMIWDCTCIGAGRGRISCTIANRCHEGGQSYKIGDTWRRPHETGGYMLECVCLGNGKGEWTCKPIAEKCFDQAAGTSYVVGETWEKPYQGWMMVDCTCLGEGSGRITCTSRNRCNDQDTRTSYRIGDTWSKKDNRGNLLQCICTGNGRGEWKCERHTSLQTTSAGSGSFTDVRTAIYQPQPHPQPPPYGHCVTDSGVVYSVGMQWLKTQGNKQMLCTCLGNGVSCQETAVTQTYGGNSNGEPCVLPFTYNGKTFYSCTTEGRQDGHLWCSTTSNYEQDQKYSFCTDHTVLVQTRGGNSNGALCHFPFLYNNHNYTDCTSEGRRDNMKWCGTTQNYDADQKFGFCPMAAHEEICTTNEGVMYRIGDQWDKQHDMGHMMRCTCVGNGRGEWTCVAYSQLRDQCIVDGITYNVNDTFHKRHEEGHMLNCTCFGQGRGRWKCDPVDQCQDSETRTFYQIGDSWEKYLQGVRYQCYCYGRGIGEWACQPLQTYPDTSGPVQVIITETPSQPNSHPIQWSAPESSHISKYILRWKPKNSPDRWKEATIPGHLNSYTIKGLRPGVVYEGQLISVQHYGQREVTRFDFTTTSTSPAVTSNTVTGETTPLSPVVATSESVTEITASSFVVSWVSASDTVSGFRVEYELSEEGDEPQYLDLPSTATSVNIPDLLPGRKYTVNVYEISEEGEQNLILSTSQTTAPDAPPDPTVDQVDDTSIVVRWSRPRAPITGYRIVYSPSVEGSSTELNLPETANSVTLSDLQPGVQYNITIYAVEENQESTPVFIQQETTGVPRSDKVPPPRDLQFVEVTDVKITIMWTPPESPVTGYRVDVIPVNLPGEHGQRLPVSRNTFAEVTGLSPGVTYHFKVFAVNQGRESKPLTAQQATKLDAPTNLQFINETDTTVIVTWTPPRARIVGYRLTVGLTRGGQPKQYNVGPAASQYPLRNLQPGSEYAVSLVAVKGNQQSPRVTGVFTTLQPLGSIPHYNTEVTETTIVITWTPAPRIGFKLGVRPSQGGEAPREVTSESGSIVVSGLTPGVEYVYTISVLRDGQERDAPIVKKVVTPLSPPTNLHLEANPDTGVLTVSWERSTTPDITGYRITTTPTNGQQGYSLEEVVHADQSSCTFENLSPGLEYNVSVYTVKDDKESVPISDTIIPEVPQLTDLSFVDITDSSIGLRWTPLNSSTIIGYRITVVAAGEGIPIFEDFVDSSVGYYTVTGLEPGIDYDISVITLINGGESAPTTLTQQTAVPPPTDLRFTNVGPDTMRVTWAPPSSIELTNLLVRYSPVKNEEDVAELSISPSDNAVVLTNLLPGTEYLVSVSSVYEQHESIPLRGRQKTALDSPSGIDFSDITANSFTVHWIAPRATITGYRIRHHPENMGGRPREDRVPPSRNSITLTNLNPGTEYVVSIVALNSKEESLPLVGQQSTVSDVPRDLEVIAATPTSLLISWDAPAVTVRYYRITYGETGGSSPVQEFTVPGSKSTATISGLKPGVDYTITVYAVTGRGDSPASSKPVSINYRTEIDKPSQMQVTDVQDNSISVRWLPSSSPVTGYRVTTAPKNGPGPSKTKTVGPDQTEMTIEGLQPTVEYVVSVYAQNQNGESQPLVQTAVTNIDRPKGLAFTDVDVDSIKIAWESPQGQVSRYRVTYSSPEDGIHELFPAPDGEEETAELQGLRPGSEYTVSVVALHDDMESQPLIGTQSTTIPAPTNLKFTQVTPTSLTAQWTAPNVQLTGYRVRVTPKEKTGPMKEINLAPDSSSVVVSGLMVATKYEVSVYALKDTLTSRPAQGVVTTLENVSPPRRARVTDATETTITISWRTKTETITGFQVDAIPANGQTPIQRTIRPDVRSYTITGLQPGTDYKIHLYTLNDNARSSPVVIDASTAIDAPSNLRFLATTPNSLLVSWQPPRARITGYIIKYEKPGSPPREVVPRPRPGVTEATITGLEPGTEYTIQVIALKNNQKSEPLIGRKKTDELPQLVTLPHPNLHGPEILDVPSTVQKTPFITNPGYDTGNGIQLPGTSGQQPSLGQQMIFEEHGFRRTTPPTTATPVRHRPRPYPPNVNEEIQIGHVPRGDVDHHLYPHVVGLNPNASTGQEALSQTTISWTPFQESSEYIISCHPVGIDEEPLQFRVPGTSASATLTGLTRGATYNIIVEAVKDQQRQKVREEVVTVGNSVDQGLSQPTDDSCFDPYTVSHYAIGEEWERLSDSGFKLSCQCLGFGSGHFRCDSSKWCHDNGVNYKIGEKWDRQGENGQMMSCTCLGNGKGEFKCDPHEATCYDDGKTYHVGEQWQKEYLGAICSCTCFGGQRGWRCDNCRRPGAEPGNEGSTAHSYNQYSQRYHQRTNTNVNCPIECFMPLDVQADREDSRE

B1: Recombinant human decorin (natural protein, UniProt P07585 31-359, looked up)
chain: DEASGIGPEVPDDRDFEPSLGPVCPFRCQCHLRVVQCSDLGLDKVPKDLPPDTTLLDLQNNKITEIKDGDFKNLKNLHALILVNNKISKVSPGAFTPLVKLERLYLSKNQLKELPEKMPKTLQELRAHENEITKVRKVTFNGLNQMIVIELGTNPLKSSGIENGAFQGMKKLSYIRIADTNITSIPQGLPPSLTELHLDGNKISRVDAASLKGLNNLAKLGLSFNSISAVDNGSLANTPHLRELHLDNNKLTRVPGGLAEHKYIQVVYLHNNNISVVGSSDFCPPGHNTKKASYSGVSLFSNPVQYWEIQPSTFRCVYVRSAIQLGNYK
modifications: a single chondroitin or dermatan sulfate GAG chain attached at the N-terminus (proteoglycan); cysteines bound to the maleimide of an NHS-PEG-Mal linker on the AFM tip
notes: decorin, human, recombinant; 42-kDa core protein; No catalogue number printed; The GAG chain is told of decorin in general; source: bought: R&D Systems
In general, koff refers to the rate constant with which the complex falls apart. Low readings indicate slow dissociation, high ones fast dissociation. As for B1, the koff is 40 ± 4 s⁻¹.

B2: Recombinant human syndecan-4 (natural protein, UniProt P31431 19-145, looked up)
chain: ESIRETEVIDPQDLLEGRYFSGALPDDEDVVGPGQESDDFELSGSGDLDDLEDSMIGPEVVHPLVPLDNHIPERAGSGSQVPTEPKKLEENEVIPKRISPVEESEDVSNKVSMSSTVQGSNIFERTE
modifications: heparan sulfate glycosaminoglycan chains (proteoglycan); cysteines bound to the maleimide of an NHS-PEG-Mal linker on the AFM tip
notes: syndecan-4, human, recombinant; No catalogue number printed; The R&D Systems product is probably the extracellular domain (surmised); also called SDC4; source: bought: R&D Systems
The molecule B2 showed a koff of 2.4 ± 0.4 s⁻¹.
